Article PMC8092406 (Proceedings of the National Academy of Sciences of the …, 2021)

B1: Cp183-F97L (natural protein)
chain: MDIDPYKEFGATVELLSFLPSDFFPSVRDLLDTASALYREALESPEHCSPHHTALRQAILCWGELMTLATWVGVNLEDPASRDLVVSYVNTNMGLKLRQLLWFHISCLTFGRETVIEYLVSFGVWIRTPPAYRPPNAPILSTLPETTVVRRRGRSPRRRTPSPRRRRSQSPRRRRSQSRESQC
B2: Cp149, CTD-less HBV core protein (domain or fragment)
chain: MDIDPYKEFGATVELLSFLPSDFFPSVRDLLDTASALYREALESPEHCSPHHTALRQAILCWGELMTLATWVGVNLEDPASRDLVVSYVNTNMGLKFRQLLWFHISCLTFGRETVIEYLVSFGVWIRTPPAYRPPNAPILSTLPETTVV

Target: the molecule itself
Assay: negative-stain electron microscopy

Protein | binding result
B1 | binds
B2 | binds
